Data reported in patent US20240058465A1 (SUTRO BIOPHARMA, published 2024).
Substitutions are numbered along the chain they refer to.

B1: SRP2194-A01 (antibody, IgG1, V domains shown)
VH: EVQLVESGGGLVQPGGSLRLSCAASGFNITGYYIHWVRQAPGKGLEWVGYISPLAGNTYHADSVKGRFNISADTSKNTAYLQMNSLRAEDTAVYYCARDSRRYVRPMDYWGQGTLVTVSS
VL: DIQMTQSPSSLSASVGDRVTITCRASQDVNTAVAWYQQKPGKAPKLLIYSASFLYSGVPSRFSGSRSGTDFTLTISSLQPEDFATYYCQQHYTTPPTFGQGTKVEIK
notes: His/FLAG-tagged IgG1, cell-free
B2: SRP2196-B08 (antibody, V domains shown)
VH: B1 VH with Y50Q, L54N, A55S, N57Y, H60L, N69T, P106G, M107W
VL: QAVVTQESALTTSPGETVTLTCRSSTGAVTTSNYANWVQEKPDHLFTGLIGGTNKRAPGVPARFSGSLIGDKAALTITGAQTEDEAIYFCALWYSNLWVFGGGTKLTVL
notes: His/FLAG-tagged IgG1
B3: SRP2194-A02 (antibody, IgG1, V domains shown)
VH: B1 VH with N69T, M107F
VL: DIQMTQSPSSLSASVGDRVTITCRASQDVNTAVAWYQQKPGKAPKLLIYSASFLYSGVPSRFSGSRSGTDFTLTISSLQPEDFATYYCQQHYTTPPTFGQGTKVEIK
notes: as for B1
B4: SRP2196-A05 (antibody, V domains shown)
VH: B1 VH with G31N, L54N, A55S, N57A, H60Q, N69T, P106S, M107W
VL: B2 VL
notes: His/FLAG-tagged IgG1
B5: SRP2194-A06 (antibody, IgG1, V domains shown)
VH: B1 VH with G31D, N69P, M107F
VL: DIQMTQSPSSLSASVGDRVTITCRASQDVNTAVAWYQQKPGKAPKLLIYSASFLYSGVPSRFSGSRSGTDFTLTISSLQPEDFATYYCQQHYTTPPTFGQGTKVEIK
notes: as for B1
B6: SRP2196-A04 (antibody, V domains shown)
VH: EVQLVESGGGLVQPGGSLRLSCAASGFNISPYYIHWVRQAPGKGLEWVGQIYPISGHTYQADSVKGRFTISADTSKNTAYLQMNSLRAEDTAVYYCARESRRYVGPFGYWGQGTLVTVSS
VL: B2 VL
notes: His/FLAG-tagged IgG1
B7: SRP2194-B04 (antibody, IgG1, V domains shown)
VH: B1 VH with Y33H, N69T, A97T, M107L
VL: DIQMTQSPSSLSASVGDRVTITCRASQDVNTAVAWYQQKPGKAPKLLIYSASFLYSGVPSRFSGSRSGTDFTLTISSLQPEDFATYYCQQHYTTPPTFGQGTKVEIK
notes: His/FLAG-tagged IgG1, cell-free; also called Antibody 129
B8: SRP2196-A07 (antibody, V domains shown)
VH: B1 VH with Y50Q, L54N, A55S, N57S, H60Y, N69T, N84S, P106G, M107W
VL: B2 VL
notes: His/FLAG-tagged IgG1
B9: SRP2194-A04 (antibody, IgG1, V domains shown)
VH: B1 VH with Y59H, N69T, M107L
VL: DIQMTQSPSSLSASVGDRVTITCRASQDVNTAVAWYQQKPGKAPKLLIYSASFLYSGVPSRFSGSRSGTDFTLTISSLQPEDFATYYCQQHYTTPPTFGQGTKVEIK
notes: as for B1
B10: SRP2194-A07 (antibody, IgG1, V domains shown)
VH: B1 VH with I29F, G31D, N69T, M107F
VL: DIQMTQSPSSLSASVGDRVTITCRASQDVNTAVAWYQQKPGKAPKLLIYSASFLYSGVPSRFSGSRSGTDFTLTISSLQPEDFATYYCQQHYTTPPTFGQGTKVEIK
notes: as for B1
B11: SRP2194-B02 (antibody, IgG1, V domains shown)
VH: B1 VH with T30S, A40T, N69T, M107L
VL: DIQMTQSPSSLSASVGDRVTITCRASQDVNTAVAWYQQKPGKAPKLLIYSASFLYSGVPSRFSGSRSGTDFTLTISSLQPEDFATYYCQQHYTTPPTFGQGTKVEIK
notes: as for B1
B12: SRP2194-B03 (antibody, IgG1, V domains shown)
VH: B1 VH with G31S, N69T, M107F
VL: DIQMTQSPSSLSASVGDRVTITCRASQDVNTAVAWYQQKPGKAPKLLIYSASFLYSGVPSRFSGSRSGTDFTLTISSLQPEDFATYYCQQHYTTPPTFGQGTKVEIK
notes: as for B1
B13: SRP2196-A03 (antibody, V domains shown)
VH: B1 VH with G31Q, Y33H, L54N, A55S, N57S, Y59H, H60E, N69T, P106G, M107W
VL: B2 VL
notes: His/FLAG-tagged IgG1; also called Antibody 150
B14: SRP2196-A06 (antibody, V domains shown)
VH: B1 VH with Y50Q, L54N, A55S, N57S, Y59H, H60Q, N69T, E89G, P106G, M107W
VL: B2 VL
notes: His/FLAG-tagged IgG1
B15: SRP2194-B01 (antibody, IgG1, V domains shown)
VH: B1 VH with T30A, G31S, N69T, M107F
VL: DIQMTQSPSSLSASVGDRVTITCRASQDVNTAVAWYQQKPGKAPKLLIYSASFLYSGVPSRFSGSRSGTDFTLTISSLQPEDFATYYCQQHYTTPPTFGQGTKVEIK
notes: His/FLAG-tagged IgG1, cell-free; also called Antibody 140
B16: SRP2193-B02 (antibody, IgG1, V domains shown)
VH: EVQLVESGGGLVQPGGSLRLSCAASGFNIKNSYIHWVRQAPGKGLEWVGTIDPTRGSTVHADSVKGRFTISADTSKNTAYLQMNSLRAEDTAVYYCARSRWFRVLWSYVFDYWGQGTLVTVSS
VL: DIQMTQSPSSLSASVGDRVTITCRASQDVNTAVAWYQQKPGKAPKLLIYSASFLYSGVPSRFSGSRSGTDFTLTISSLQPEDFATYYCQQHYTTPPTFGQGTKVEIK
notes: His/FLAG-tagged IgG1, cell-free; also called Antibody 77
B17: SRP2193-E01 (antibody, IgG1, V domains shown)
VH: B16 VH with N31G, S32K, T50A, T54K, R55S, V59A, V93A, S107T
VL: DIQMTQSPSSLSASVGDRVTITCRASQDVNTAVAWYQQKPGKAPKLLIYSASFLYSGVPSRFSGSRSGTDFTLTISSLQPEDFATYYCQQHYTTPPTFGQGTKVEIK
notes: His/FLAG-tagged IgG1, cell-free; also called Antibody 120
B18: SRP2193-E03 (antibody, IgG1, V domains shown)
VH: B16 VH with K30T, N31A, T50A, T54K, R55G, V59R, H60F
VL: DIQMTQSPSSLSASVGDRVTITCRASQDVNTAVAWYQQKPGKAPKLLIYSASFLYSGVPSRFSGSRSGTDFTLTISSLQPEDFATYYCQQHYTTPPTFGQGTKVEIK
notes: His/FLAG-tagged IgG1, cell-free; also called Antibody 98
B19: SRP2193-E11 (antibody, IgG1, V domains shown)
VH: EVQLVESGGGLVQPGGSLRLSCAASGFNINDYYIHWVRQAPGKGLEWVGGIEPNSGATVFADSVKGRFTIGADTSKNTAYLQMNSLRAEDTAVYYCARSRWYRVLWSYVFHYWGQGTLVTVSS
VL: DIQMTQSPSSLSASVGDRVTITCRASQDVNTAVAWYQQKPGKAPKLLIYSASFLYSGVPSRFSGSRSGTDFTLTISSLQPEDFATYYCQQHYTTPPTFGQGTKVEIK
notes: His/FLAG-tagged IgG1, cell-free; also called Antibody 79
B20: SRP2193-E08 (antibody, IgG1, V domains shown)
VH: B19 VH with D31E, G50A, E52D, N54H, A57S, V59N, G71S, H111D
VL: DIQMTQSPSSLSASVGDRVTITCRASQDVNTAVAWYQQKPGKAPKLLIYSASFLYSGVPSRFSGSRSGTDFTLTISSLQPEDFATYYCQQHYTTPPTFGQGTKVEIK
notes: His/FLAG-tagged IgG1, cell-free; also called Antibody 87
B21: SRP2193-D10 (antibody, IgG1, V domains shown)
VH: B16 VH with K30N, N31V, G49A, T54N, R55S, S57F
VL: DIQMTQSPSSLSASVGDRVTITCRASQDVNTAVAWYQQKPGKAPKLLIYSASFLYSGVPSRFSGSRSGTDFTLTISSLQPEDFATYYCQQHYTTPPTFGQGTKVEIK
notes: His/FLAG-tagged IgG1, cell-free; also called Antibody 92
B22: SRP2193-B04 (antibody, IgG1, V domains shown)
VH: B16 VH with K30S, T50A, D52E, T54K, R55N, V59H, S107T
VL: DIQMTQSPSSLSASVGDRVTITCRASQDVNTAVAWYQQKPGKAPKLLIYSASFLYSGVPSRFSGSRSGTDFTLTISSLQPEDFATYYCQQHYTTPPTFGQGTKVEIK
notes: as for B1
B23: SRP2193-C04 (antibody, IgG1, V domains shown)
VH: B16 VH with K30N, N31T, T50A, T54K, R55S, V59N, H60F, T74A, F110L
VL: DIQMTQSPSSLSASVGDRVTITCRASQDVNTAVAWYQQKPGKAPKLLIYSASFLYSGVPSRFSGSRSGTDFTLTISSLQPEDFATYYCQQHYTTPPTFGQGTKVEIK
notes: His/FLAG-tagged IgG1, cell-free; also called Antibody 86
B24: SRP2193-B03 (antibody, IgG1, V domains shown)
VH: B16 VH with K30R, N31D, S32Y, T50A, T54V, R55S, V59L, H60F, A92E
VL: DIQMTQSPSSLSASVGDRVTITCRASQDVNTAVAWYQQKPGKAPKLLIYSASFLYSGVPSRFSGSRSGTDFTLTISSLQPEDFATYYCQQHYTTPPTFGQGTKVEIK
notes: His/FLAG-tagged IgG1, cell-free; also called Antibody 82
B25: SRP2196-B05 (antibody, V domains shown)
VH: B1 VH with Y50Q, L54N, A55S, N57A, N69T, P106G, M107W
VL: B2 VL
notes: His/FLAG-tagged IgG1
B26: SRP2196-A02 (antibody, V domains shown)
VH: B1 VH with Y50Q, L54N, A55S, N57A, Y59H, H60D, N69T, P106G, M107W
VL: B2 VL
notes: His/FLAG-tagged IgG1

Target: T1, human ROR1 Frizzled domain (hROR1-Fz) (human, UniProt Q01973 165-305)
T1 construct: Acro Biosystems, made in HEK293
Assay: SPR Biacore, IgG on anti-Fc, ROR1-Fz analyte
Protocol: Anti-Fc polyclonal antibodies were immobilized onto a CMS chip (GE Life Sciences) using amine coupling chemistry (from Amine Coupling Kit, GE Life Sciences). The immobilization steps were carried out at a flow rate of 25 μL/min in 1×HBS-EP+buffer (GE Life Sciences; 10× Stock diluted before use). The sensor surfaces were activated for 7 min with a mixture of NHS (0.05 M) and EDC (0.2 M). The Anti-Fc antibodies were injected over all 4 flow cells at a concentration of 25 ug/ml in 10 mM sodium acetate, pH 4.5, for 7 min. Ethanolamine (1 M, pH 8.5) was injected for 7 min to block any remaining activated groups.
Off-rate and kinetic binding experiments were performed at 25° C. using 1×HBS-EP+buffer. Test and control antibodies were injected over the anti-Fc surface at concentrations of 5-10 μg/mL for 12 seconds at a flow rate of 10 μL/min on flow cells 2, 3 and 4, followed by a buffer wash for 30 seconds at the same flow rate. […] After capturing ligand (antibody) on the anti-Fc surface, the analyte (hROR1, Fz or Kr domains, Acro Biosystems, Delaware) was bound for 180 seconds, followed by a 600 second dissociation phase at a flow rate of 50 μL/min. Between each ligand capture and analyte binding cycle, regeneration was carried out using 2 injections of 10 mM Glycine pH 2.0 for 30 seconds at 30 μL/min, followed by a 30 second buffer wash step.

Binder	Kd [nM]	koff [s⁻¹]	kon [M⁻¹ s⁻¹]
B1	1.07	0.000325	304000
B2	3.13	0.000488	156000
B3	1.39	0.000429	308000
B4	3.9	0.000682	175000
B5	3.75	0.00193	516000
B6	2.46	0.000343	139000
B7	1.44	0.000392	271000
B8	3.44	0.00064	186000
B9	1.84	0.000364	198000
B10	1.61	0.000275	171000
B11	2.77	0.00071	256000
B12	1.42	0.000295	207000
B13	1.63	0.000275	169000
B14	3.82	0.00069	180000
B15	3.12	0.000857	274000
B16	2.35	0.000511	218000
B17	1.06	0.000242	228000
B18	1.14	0.000294	259000
B19	1.28	0.000474	370000
B20	3.96	0.000651	164000
B21	3.62	0.000379	105000
B22	0.778	0.000134	172000
B23	1.19	0.000207	173000
B24	2.96	0.000505	170000

Target: T2, human ROR1 (hROR1) (human, UniProt Q01973 30-937)
T2 construct: On HCT116-hROR1 transfectants, Mino cells or Ntera-2 cells, as the assay of each row says; also called receptor tyrosine kinase like orphan receptor 1
Assay: flow cytometry, HCT116-hROR1 cells
Protocol: A mix of ROR1 positive and negative cells was prepared as follows. Ror1 negative cells were washed 2× in PBS then incubated in PBS containing 1 nM CellTrace™ Oregon Green488® (Life Technologies) at 37° C. for 30 minutes. Cells were then washed 2× with RPMI w/10% fetal calf serum (or FCS), washed 2× with FACS buffer (PBS+0.5% BSA), suspended thoroughly in ice-cold FACS buffer at a final concentration of 4×10^6 cells/ml and kept on ice. ROR1 positive cells were washed 2× in PBS and suspended with ice-cold FACS buffer at 4×10^6 cells/ml. ROR1 positive and negative cells were then mixed to obtain a 1-1 cell suspension and seeded at 50 μl per well on 96 well polypropylene plates. 50 μl of 6-12 point dilutions of anti-ROR1 variants starting from concentrations of ˜100-200 nM antibody was dispensed using BioMekFX (Beckman Coulter) into each well. Cells were then incubated on ice for 1 hr, washed with FACS buffer and incubated for 1 hr on ice with 50 μl FACS buffer containing 2.5 μg/ml Alexa647-conjugated Goat Anti-Human IgG dispensed using BioMekFX (Beckman Coulter). Cells were then washed 2× with FACS buffer and fixed for 10 minutes in 200 μl PBS with 2% PFA prior to fluorescence detection. Samples were acquired using a Beckton Dickinson LSRII FACS. Mean Fluorescence Intensity of ROR1 antibody binding was analyzed using FlowJo® software (Tree Star, Inc.).

Binder	Bmax (MFI)	Kd [nM]
B1	9010	0.12
B2	14400	0.2
B3	9220	0.14
B4	14800	0.3
B5	9050	0.49
B6	14200	0.1
B7	9300	0.2
B8	14100	0.2
B9	9050	0.16
B10	8770	0.41
B11	9330	0.15
B12	9480	0.18
B25	14800	0.2
B13	15400	0.3
B14	14600	0.2
B26	15200	0.2
B15	8860	0.14
B16	15600	0.28
B17	17000	0.13
B18	14800	0.19
B19	25400	1.33
B20	15100	4.28
B21	14800	0.64
B22	15600	0.4
B23	14900	0.18
B24	15500	0.67
